Measurements: patent US20230348616A1 (MIE UNIVERSITY, published 2023)
Like-named read-outs stand apart in the source and are kept apart here.

Columns and labels:
[1] = target: T1, HLA-A2 / homologous peptide PRKD2 complex on T2 cells (human); assay: flow cytometry on peptide-pulsed T2 cells, scFv 100 nM;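 note: scFv binding read as gMFI and normalized to the level of HLA/peptide complex displayed on T2 cells, with homologous 9-mer peptides used to probe specificity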
T1 construct: whole, on cells; also called T2 cells supplemented with homologous peptide PRKD2
Description: (§1) The cells were washed 2 times in PBS containing 5% FBS, immobilized with Mildform 10 N (FUJIFILM Wako Pure Chemical Corporation) overnight, and resuspended in PBS containing 5% FBS. The cell suspensions were subjected to detection using a flow cytometer (CantoII, Becton Dickinson). […] The standardized gMFI indicating the binding affinity of each scFv standardized with the amount of the HLA/peptide complex on the T2 cells was determined in accordance with the following equation.
(§2) The 9-mer peptide shown in FIG. 2A was selected as a homologous peptide for evaluation of binding specificity of anti-HLA/NY-ESO scFv. […] The standardized gMFI indicating the binding affinity of each scFv standardized with the amount of the HLA/peptide complex on the T2 cells was determined in accordance with the following equation.

[2] = target: T2, HLA-A2/NY-ESO peptide complex presented on cells (human); assay: as above
T2 construct: whole, on cells; also called HLA/NY-ESO; T2 cells supplemented with the NY-ESO peptide
Description: as §1, §2

[3] = target: T3, HLA-A2 / homologous peptide IL20RB complex on T2 cells (human); assay: as above
T3 construct: whole, on cells; also called T2 cells supplemented with homologous peptide IL20RB
Description: as §1, §2

[4] = target: T4, gp100 (human); assay: as above
T4 construct: cell surface;cell surface complex; also called HLA-A2 / gp100 peptide complex on T2 cells
Description: as §1, §2

[5] = target: T5, HLA-A2 / homologous peptide P2RY8 complex on T2 cells (human); assay: as above
T5 construct: whole, on cells; also called T2 cells supplemented with homologous peptide P2RY8
Description: as §1, §2

[6] = target: T6, HLA-A2 / homologous peptide CD163 complex on T2 cells (human); assay: as above
T6 construct: whole, on cells; also called T2 cells supplemented with homologous peptide CD163
Description: as §1, §2

[7] = target: T7, HLA-A2 / homologous peptide DOLPP1 complex on T2 cells (human); assay: as above
T7 construct: whole, on cells; also called T2 cells supplemented with homologous peptide DOLPP1
Description: as §1, §2

[8] = target: T8, HLA-A*0201/β2-microglobulin/NY-ESO peptide complex (human, biotinylated with E. coli biotin ligase at the added recognition sequence (biotinylated form used in the ELISA)); assay: SPR (Biacore T200), scFv captured by anti-His antibody, HLA/NY-ESO as analyte, single cycle kinetics
T8 construct: also called HLA/NY-ESO; HLA-A2/NY-ESO
Description: With the use of Biacore T200, anti-HLA/NY-ESO scFv was captured as a ligand by the immobilized anti-His antibody, and the antigen was assayed as an analyte. As the antigen, HLA/NY-ESO prepared in 1)-1 was used. The anti-His antibody (His Capture kit, GE Healthcare) was immobilized on Sensor Chip CM5 (GE Healthcare) in accordance with the instructions of the kit. The anti-HLA/NY-ESO scFv constructs diluted to 0.5 μg/ml in HBS-EP+ (GE Healthcare) to be evaluated were brought into contact therewith at 10 μl/min for 60 seconds for immobilization. Thereafter, the samples were added to the HLA/NY-ESO analytes diluted to various levels with HBS-EP+ at a flow rate of 30 μl/min for 120 seconds and dissociation was assayed for 600 seconds.

[9] = target: T2, HLA-A2/NY-ESO peptide complex presented …; assay: flow cytometry on peptide-pulsed T2 cells, scFv 100 nM; remark: listed apart in the source
Description: (§3) The resultant was washed two times in the AIM-V medium containing 20% FBS, the concentration thereof was adjusted to an adequate level with PBS containing 5% FBS, the LIVE/DEAD Fixable Dead Cell Stain Kit (Thermo Fisher Scientific) was added thereto, and the resultant was allowed to stand at 4° C. for 30 minutes. The cells were washed 2 times in PBS containing 5% FBS, the washed cells were divided into two groups, the cells in PBS containing 5% FBS were seeded on a 96-well U-bottom microplate at 10⁵ cells/well, and the plate was subjected to centrifugation, followed by removal of the supernatant. Anti-HLA/NY-ESO scFv diluted to 100 nM with PBS containing 5% FBS was added at 25 μl/well to one of the divided cells, and the resultant was allowed to stand at 4° C. for 30 minutes. The cells were washed 2 times in PBS containing 5% FBS, Penta-His Alexa Fluor488 (QIAGEN) diluted in PBS containing 5% FBS was added at 25 μl/well, and the resultant was allowed to stand at 4° C. for 30 minutes. The cells were washed 2 times in PBS containing 5% FBS, Anti-mouse-IgG Alexa Fluor488 (Thermo Fisher Scientific) diluted in PBS containing 5% FBS was added at 25 μl/well, and the resultant was allowed to stand at 4° C. for 30 minutes. The cells were washed 2 times in PBS containing 5% FBS, immobilized with Mildform 10 N (FUJIFILM Wako Pure Chemical Corporation) overnight, and resuspended in PBS containing 5% FBS. […] The cells were washed 2 times in PBS containing 5% FBS, immobilized with Mildform 10 N (FUJIFILM Wako Pure Chemical Corporation) overnight, and resuspended in PBS containing 5% FBS. The cell suspensions were subjected to detection using a flow cytometer (CantoII, Becton Dickinson). […] The standardized gMFI indicating the binding affinity of each scFv standardized with the amount of the HLA/peptide complex on the T2 cells was determined in accordance with the following equation.

[10] = target: T4, gp100; assay: as above; remark: listed apart in the source
Description: as §3

[11] = target: T1, HLA-A2 / homologous peptide PRKD2 …; assay: flow cytometry, peptide-pulsed T2 cells
[12] = target: T3, HLA-A2 / homologous peptide IL20RB …; assay: flow cytometry, peptide-pulsed T2 cells
[13] = target: T5, HLA-A2 / homologous peptide P2RY8 …; assay: flow cytometry, peptide-pulsed T2 cells
[14] = target: T6, HLA-A2 / homologous peptide CD163 …; assay: flow cytometry, peptide-pulsed T2 cells
[15] = target: T7, HLA-A2 / homologous peptide DOLPP1 …; assay: flow cytometry, peptide-pulsed T2 cells
[16] = target: T8, HLA-A*0201/β2-microglobulin/NY-ESO …; assay: ELISA, biotinylated HLA/NY-ESO on NeutrAvidin, scFv from E. coli culture, anti-FLAG-HRP
Description: The plate was washed 3 times with ELISA buffer, blocked with Blocker Casein (Thermo Fisher Scientific), and then washed 3 times with ELISA buffer. Thereafter, a culture solution of scFv-expressing E. coli was added, and the reaction was allowed to proceed at room temperature for 2 hours. After the resultant was washed 3 times with ELISA buffer, 50 μl of the horseradish peroxidase (HRP)-labeled anti-FLAG antibody (Sigma-Aldrich) diluted to 5,000-fold with ELISA buffer was added, and the reaction was allowed to proceed at room temperature for 1 hour.

B1: NYA-2048 (scFv)
scFv: GQVQLVESGGGVVQPGRSLRLSCAASGFSIRSYDMHWVRQAPGKGLEWVATISYDGSQKYYADSVKGRFTISRDNSKNTLYLQMSSLRAEDTAVYHCARGSSGHYEAFDIWGQGTLVTVSSGGGGSGGGGSGGGGSQSVLTQPPSASGTPGQRVTISCSGSSSNIGNWYVSWYQQLPGTAPKLLIYDNNKRPSGVPDRFSGSKSGTSASLAISGLQSEDEADYYCGTWDSSLSAPWVFGGGTKLTVLGAAAGAGGDYKDDDDKGAAAHHHHHH
notes: also called NYA-2048 tag adduct
[1]
  standardized gMFI: 0.35
[2]
  standardized gMFI: 8.82
[3]
  standardized gMFI: 0.48
[4]
  standardized gMFI: 0.34
[5]
  standardized gMFI: 0.69
[6]
  standardized gMFI: 0.52
[7]
  standardized gMFI: 0.44
[8]
  Kd: 6.3 nM
[9]
  standardized gMFI: 6.58
[10]
  standardized gMFI: 0.41
[11]
  binding result: no binding (tested: 100 nM)
[12]
  binding result: no binding (tested: 100 nM)
[13]
  binding result: no binding (tested: 100 nM)
[14]
  binding result: no binding (tested: 100 nM)
[15]
  binding result: no binding (tested: 100 nM)

B2: NY-R119 (scFv)
scFv: EVQLVESGGGVVQPGRSLTPSCSASGFSIRSYDIHWVRQAPGKGLEWVATISYDGSQKYFADSVKGRFTIFRDESENMVYLQMSGLRVEDTAVYHCARGSSGHYEAFDIWGQGTMVTVSSGGGGSGGGGSGGGGSQSVLTQPPSVSAAPGQKVTISCSGSSSNIGNNYVSWYQQLPGTAPKLLIYDNNKRPSGIPDRFSGSKSGTSATLGITGLQTGDEADYYCGTWDSSLSAPWVFGGGTKVTVL
notes: Expressed in E. coli, culture solution used in the ELISA; also called ELISA-positive clone NY-R119; not shown: FLAG tag and His tag at the carboxyl terminus from the E. coli expression vector
[16]
  binding result: binds
